Measurements from paper PMC6547726, “Advanced FRET normalization allows quantitative analysis of protein interactions including stoichiometries and relative affinities in living cells” (Scientific Reports, 2019).
Each block holds one molecule with its values, some of them ahead of it.

Legend:
[1] = biological target: YFP-p65 (UniProt Q04206); assay: FRET or BRET; 3-filter FRET by flow cytometry (CYTOFLEX S) of living transfected HeLa cells, five plasmid ratios; DFRET of single cells fitted to a law-of-mass-action model (Ka^app apparent, z, FRETmax)
Chain of YFP-p65 (Q04206 whole entry): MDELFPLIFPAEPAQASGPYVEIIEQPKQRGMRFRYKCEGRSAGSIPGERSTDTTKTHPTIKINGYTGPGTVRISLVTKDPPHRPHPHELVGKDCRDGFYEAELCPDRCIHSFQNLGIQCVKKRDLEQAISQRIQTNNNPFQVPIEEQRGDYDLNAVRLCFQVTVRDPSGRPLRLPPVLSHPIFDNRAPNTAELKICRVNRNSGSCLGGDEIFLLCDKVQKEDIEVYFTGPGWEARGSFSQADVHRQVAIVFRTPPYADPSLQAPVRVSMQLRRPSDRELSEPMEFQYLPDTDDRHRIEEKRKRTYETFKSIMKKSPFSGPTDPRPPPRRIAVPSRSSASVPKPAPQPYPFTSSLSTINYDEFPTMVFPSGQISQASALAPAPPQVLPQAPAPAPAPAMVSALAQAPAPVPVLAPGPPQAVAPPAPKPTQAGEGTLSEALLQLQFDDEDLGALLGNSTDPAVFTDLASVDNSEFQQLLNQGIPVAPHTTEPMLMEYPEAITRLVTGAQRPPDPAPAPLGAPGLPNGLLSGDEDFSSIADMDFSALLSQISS

[2] = biological target: T1, YFP-tagged IKKα (UniProt O15111 1-745); assay: as above; settings: partners not purified
T1 construct: IKKα, IKK subunit α of the NF-kappaB pathway; FRET donor; also called IKK subunit α; source: HeLa cells (clone ACC 57), transfected, in living cells
T1 sequence (looked up): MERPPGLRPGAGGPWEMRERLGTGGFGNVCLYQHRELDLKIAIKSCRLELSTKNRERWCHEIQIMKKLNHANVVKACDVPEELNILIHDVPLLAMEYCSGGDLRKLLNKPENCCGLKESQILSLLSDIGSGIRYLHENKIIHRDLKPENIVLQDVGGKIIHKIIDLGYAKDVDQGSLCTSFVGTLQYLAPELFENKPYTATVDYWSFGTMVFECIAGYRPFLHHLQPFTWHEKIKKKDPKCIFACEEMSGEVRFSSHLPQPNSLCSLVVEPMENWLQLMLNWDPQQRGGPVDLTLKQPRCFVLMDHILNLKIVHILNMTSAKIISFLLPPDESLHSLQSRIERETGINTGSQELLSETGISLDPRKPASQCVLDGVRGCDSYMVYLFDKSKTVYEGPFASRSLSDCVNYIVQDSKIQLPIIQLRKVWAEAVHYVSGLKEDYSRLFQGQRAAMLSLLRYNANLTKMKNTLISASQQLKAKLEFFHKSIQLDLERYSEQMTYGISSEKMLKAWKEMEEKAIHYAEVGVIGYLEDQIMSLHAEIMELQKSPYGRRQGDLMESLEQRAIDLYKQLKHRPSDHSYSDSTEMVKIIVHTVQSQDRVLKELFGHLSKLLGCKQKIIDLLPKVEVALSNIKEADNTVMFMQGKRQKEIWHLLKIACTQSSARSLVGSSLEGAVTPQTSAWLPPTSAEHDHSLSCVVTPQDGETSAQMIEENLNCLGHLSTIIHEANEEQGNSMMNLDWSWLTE

stoichiometry N (acceptor (IκB) per donor (p65)) [1]: 0.5
Molecule: IκB-mCherry (from UniProt P25963 1-317) (natural protein)

stoichiometry N [2]: ~1 acceptor (IKKβ) per donor (IKKα)
B1: mCherry-tagged IKKβ (natural protein, UniProt O14920 1-756, looked up)
chain: MSWSPSLTTQTCGAWEMKERLGTGGFGNVIRWHNQETGEQIAIKQCRQELSPRNRERWCLEIQIMRRLTHPNVVAARDVPEGMQNLAPNDLPLLAMEYCQGGDLRKYLNQFENCCGLREGAILTLLSDIASALRYLHENRIIHRDLKPENIVLQQGEQRLIHKIIDLGYAKELDQGSLCTSFVGTLQYLAPELLEQQKYTVTVDYWSFGTLAFECITGFRPFLPNWQPVQWHSKVRQKSEVDIVVSEDLNGTVKFSSSLPYPNNLNSVLAERLEKWLQLMLMWHPRQRGTDPTYGPNGCFKALDDILNLKLVHILNMVTGTIHTYPVTEDESLQSLKARIQQDTGIPEEDQELLQEAGLALIPDKPATQCISDGKLNEGHTLDMDLVFLFDNSKITYETQISPRPQPESVSCILQEPKRNLAFFQLRKVWGQVWHSIQTLKEDCNRLQQGQRAAMMNLLRNNSCLSKMKNSMASMSQQLKAKLDFFKTSIQIDLEKYSEQTEFGITSDKLLLAWREMEQAVELCGRENEVKLLVERMMALQTDIVDLQRSPMGRKQGGTLDDLEEQARELYRRLREKPRDQRTEGDSQEMVRLLLQAIQSFEKKVRVIYTQLSKTVVCKQKALELLPKVEEVVSLMNEDEKTVVRLQEKRQKELWNLLKIACSKVRGPVSGSPDSMNASRLSQPGQLMSQPSTASNSLPEPAKKSEELVAEAHNLCTLLENAIQDTVREQDQSFTALDWSWLQTEEEEHSCLEQAS
notes: IKKβ, IKK subunit β of the NF-kappaB pathway; FRET acceptor; also called IKK subunit β; source: HeLa cells (clone ACC 57), transfected, in living cells
